The series concerns the molecule itself.

We go through one protein from publication PMC3547825 (PLoS Computational Biology, 2013).

B1: wild-type α-hemolysin (WT-HL) (natural protein)
chain: ADSDINIKTGTTDIGSNTTVKTGDLVTYDKENGMHKKVFYSFIDDKNHNKKLLVIRTKGTIAGQYRVYSEEGANKSGLAWPSAFKVQLQLPDNEVAQISDYYPRNSIDTKEYMSTLTYGFNGNVTGDDTGKIGGLIGANVSIGHTLKYVQPDFKTILESPTDKKVGWKVIFNNMVNQNWGPYDRDSWNPVYGNQLFMKTRNGSMKAADNFLDPNKASSLLSSGFSPDFATVITMDRKASKQQTNIDVIYERVRDDYQLHWTSTNWKGTNTKDKWIDRSSERYKIDWEKEEMTN
For B1, the “stoichiometry N” value came out at 7.

By stoichiometry N is commonly meant a count of units in the complex or per binding partner.
